Assay results taken from patent publication US20230025280A1, “PH RESPONSIVE COMPOSITIONS, FORMULATIONS, AND METHODS OF IMAGING A TUMOR” (ONCONANO MEDICINE, INC, priority 2019, published 2023).
Values joined by “and” are separate entries in the source; they are usually repeats but may differ in a detail not shown here. Equal entries are not always repeated. Marks after values point to notes of the source that are not given here.

Assay: Phase 1 (1a/1b) pharmacokinetics: plasma concentrations after single IV dose (validated direct fluorescence reader assay), noncompartmental analysis
Format: in vivo, human
From the text: Phase 1 is a single-Principal Investigator, non-randomized, open-label, single-arm, cross-sectional study to evaluate the safety, PK profile, and imaging feasibility of Compound 1 in patients with solid cancers who require surgical excision. The main purpose of this study was to investigate the safety, PK, and feasibility of Compound 1 as an intra-operative optical imaging agent to detect tumors and metastatic lymph nodes in solid cancers. The study was intended to investigate the optimal dose range of Compound 1 for an adequate TBR and CNR of fluorescence obtained intraoperatively at 24 (±8) hours post dosing and with ex vivo specimens using ICG compatible cameras and imaging devices.
Phase 1 enrolled 30 patients with solid cancers (HNSCC, breast cancer, esophageal cancer, or colorectal cancer) who have a biopsy-confirmed diagnosis of respective tumor types and are scheduled to undergo surgical resection of the tumor. The study design included a standard 3+3 design for the dose-escalation portion (Phase 1a; N=18 maximum) followed by a dose-expansion portion (Phase 1b; N=15). All patients received a single I.V. dose of Compound 1, followed by routine surgery approximately 24 hours after infusion of Compound 1.
Phase 1a was a dose-finding study performed in 5 cohorts of 3 patients each. The dose levels evaluated were […], and 1.2 mg/kg, in this sequence. Inter-cohort dose escalation took place after the last patient in the previous cohort completed the Day 10 safety assessment. Safety, PK, and imaging feasibility were evaluated in both the Phase 1a and 1b portions of the study. Patient safety is assessed during the study and for up to 10 days post-dose.
Study design: Single Compound 1 IV dose was administered as a 1-5 minute IV infusion to patients in five cohorts (0.1, 0.3, 0.5, 0.8, and 1.2 mg/kg) with three patients per cohort in Phase 1a and 15 patients at a dose of 1.2 mg/kg in Phase 1b. Patient demographic information including tumor types is presented in Table 4 and 5 for Phase 1a and Table 5 for Phase 1b. Intertek Pharmaceutical Services (San Diego, Calif.) determined Compound 1 plasma concentrations using a validated direct fluorescence reader assay. Pacific BioDevelopment (Davis, Calif.) performed the PK analysis.
Sample collection: Blood samples were collected prior to infusion and at 10 minutes and 0.5, 1, 3, 8, 24, 48, 72, and 240 hours after infusion.
Analysis: Plasma concentration versus time profiles were generated for each patient. Pharmacokinetic parameters were estimated using Phoenix WinNonlin (version 8.0). According to SOP, concentrations reported as BQL were set to 0 except for the 0.5 h sample for subject #ON1102, which was set to LLOQ/2 ([…] value used in parameter calculations) and the 24 and 48 h samples.
If the coefficient of determination for the terminal slope estimation was less than 0.8, T1/2 was not reported (NR). AUC extrapolated to infinity is not reported for any data set because in all cases the % extrapolated AUC was greater than 20% and thus the AUCinf estimate would not be reliable. The concentration at 10 minutes, the first time point measured (C10m), was also reported for each patient.
The area under the plasma concentration versus time curves from dosing to the last time point with a measurable concentration (AUClast) was estimated by the linear trapezoid method. The last three or more time points were used to estimate the elimination rate constant (λz) which was used to estimate the terminal-phase half-life (T1/2) and AUC from zero to infinity (AUCINF) from the following equations: […]

[1] = 1.2 mg/kg, HNSCC, individual subjects
[2] = Phase 1a, 0.3 mg/kg single IV, individual subject
[3] = Phase 1a, 0.3 mg/kg single IV, mean
[4] = Phase 1a, 0.3 mg/kg single IV, median
[5] = Phase 1a, 0.5 mg/kg single IV, individual subject

Substance: PEO90-140-b-P(DBA60-150-r-ICG0-3-r-AMA0-3) [Compound 1]
- Cmax (1.2 mg/kg, HNSCC, Mean, N 7): 33600 ng/mL
- Tmax (1.2 mg/kg, HNSCC, Mean, N 7): 1.14 h
- T1/2 (1.2 mg/kg, HNSCC, Median, N 5): 42.6 h
- AUC0-24 hr (1.2 mg/kg, HNSCC, Median, N 7): 565 µg·h/mL
- AUCall (1.2 mg/kg, HNSCC, Median, N 7): 1160 µg·h/mL
- AUClast (1.2 mg/kg, HNSCC, Median, N 7): 970 µg·h/mL
- C10 m (1.2 mg/kg, HNSCC, Median, N 7): 30.3 µg/mL
- Cmax (1.2 mg/kg, HNSCC, Median, N 7): 32400 ng/mL
- Tmax (1.2 mg/kg, HNSCC, Median, N 7): 0.500 h
- AUC0-24 hr [1]: 348 µg·h/mL and 563 µg·h/mL and 565 µg·h/mL and 520 µg·h/mL and 625 µg·h/mL and 730 µg·h/mL and 740 µg·h/mL
- AUCall [1]: 348 µg·h/mL and 1160 µg·h/mL and 1100 µg·h/mL and 747 µg·h/mL and 2690 µg·h/mL and 2550 µg·h/mL and 2740 µg·h/mL
- AUClast [1]: 184 µg·h/mL and 970 µg·h/mL and 957 µg·h/mL and 520 µg·h/mL and 1430 µg·h/mL and 1480 µg·h/mL and 1580 µg·h/mL
- C10 m [1]: 28.0 µg/mL and 34.1 µg/mL and 28.5 µg/mL and 27.5 µg/mL and 30.3 µg/mL and 47.6 µg/mL and 31.3 µg/mL
- Cmax [1]: 28000 ng/mL and 34100 ng/mL and 29900 ng/mL and 29200 ng/mL and 32400 ng/mL and 47600 ng/mL and 34300 ng/mL
- T1/2 [1]: 32.5 h and 46.5 h and 42.6 h and 38.4 h and 46.8 h
- Tmax [1]: 0.170 h and 1.00 h and 0.500 h and 3.00 h
- AUC0-24h in relation to dose (Phase 1a and 1b, up to 1.2 mg/kg): appears to be dose proportional
- Exposure in relation to dose (Phase 1a and Phase 1b combined): dose proportional
- Measurability in subject plasma samples (Phase 1a, 0.1 mg/kg): not measurable
- C10 m (Phase 1a, 0.1 mg/kg single IV, individual subject): 0.00 µg/mL
- C10 m (Phase 1a, 0.1 mg/kg single IV, mean): 0.00 µg/mL
- C10 m (Phase 1a, 0.1 mg/kg single IV, median): 0.00 µg/mL
- Plasma Conc (Phase 1a, 0.100 mg/kg, 0.170 hr, individual subject): BQL (BQL (<10 μg/mL), set = 0 for PK analysis)
- Plasma Conc (Phase 1a, 0.100 mg/kg, 0.170 hr, mean): 0.00 µg/mL
- Plasma Conc (Phase 1a, 0.100 mg/kg, 0.500 hr, individual subject): BQL (BQL (<10 μg/mL), set = 0 for PK analysis)
- Plasma Conc (Phase 1a, 0.100 mg/kg, 0.500 hr, mean): 0.00 µg/mL
- Plasma Conc (Phase 1a, 0.100 mg/kg, 1.00 hr, individual subject): BQL (BQL (<10 μg/mL), set = 0 for PK analysis)
- Plasma Conc (Phase 1a, 0.100 mg/kg, 1.00 hr, mean): 0.00 µg/mL
- Plasma Conc (Phase 1a, 0.100 mg/kg, 3.00 hr, individual subject): BQL (BQL (<10 μg/mL), set = 0 for PK analysis)
- Plasma Conc (Phase 1a, 0.100 mg/kg, 3.00 hr, mean): 0.00 µg/mL
- Plasma Conc (Phase 1a, 0.100 mg/kg, 8.00 hr, individual subject): BQL (BQL (<10 μg/mL), set = 0 for PK analysis)
- Plasma Conc (Phase 1a, 0.100 mg/kg, 8.00 hr, mean): 0.00 µg/mL
- Plasma Conc (Phase 1a, 0.100 mg/kg, 24.0 hr, individual subject): BQL (BQL (<10 μg/mL), set = 0 for PK analysis)
- Plasma Conc (Phase 1a, 0.100 mg/kg, 24.0 hr, mean): 0.00 µg/mL
- Plasma Conc (Phase 1a, 0.100 mg/kg, 48.0 hr, individual subject): BQL (BQL (<10 μg/mL), set = 0 for PK analysis)
- Plasma Conc (Phase 1a, 0.100 mg/kg, 48.0 hr, mean): 0.00 µg/mL
- Plasma Conc (Phase 1a, 0.100 mg/kg, 72.0 hr, individual subject): BQL (BQL (<10 μg/mL), set = 0 for PK analysis)
- Plasma Conc (Phase 1a, 0.100 mg/kg, 72.0 hr, mean): 0.00 µg/mL
- Plasma Conc (Phase 1a, 0.100 mg/kg, 240 hr, individual subject): BQL (BQL (<10 μg/mL), set = 0 for PK analysis)
- Plasma Conc (Phase 1a, 0.100 mg/kg, 240 hr, mean): 0.00 µg/mL
- Mean AUC0-24h (Phase 1a, 0.3 mg/kg): 197 µg·h/mL
- Mean C10 (Phase 1a, 0.3 mg/kg): 12 µg/mL
- AUC0-24 hr [2]: 292 µg·h/mL and 4.68 µg·h/mL and 296 µg·h/mL
- AUCall [2]: 437 hr*μg/mL and 4.68 hr*μg/mL and 2040^1 hr*μg/mL
- AUClast [2]: 292 µg·h/mL and 3.43 µg·h/mL and 902 µg·h/mL
- C10 m [2]: 10.7 µg/mL and 10.4 µg/mL and 14.8 µg/mL
- Cmax [2]: 12500 ng/mL and 10400 ng/mL and 16500 ng/mL
- Tmax [2]: 8.00 h and 0.170 h and 3.00 h
- AUC0-24 hr [3]: 197 µg·h/mL
- AUCall [3]: 826 µg·h/mL
- AUClast [3]: 399 µg·h/mL
- C10 m [3]: 12.0 µg/mL
- Cmax [3]: 13100 ng/mL
- Tmax [3]: 3.72 h
- AUC0-24 hr [4]: 292 µg·h/mL
- AUCall [4]: 437 µg·h/mL
- AUClast [4]: 292 µg·h/mL
- C10 m [4]: 10.7 µg/mL
- Cmax [4]: 12500 ng/mL
- Tmax [4]: 3.00 h
- Plasma Conc (Phase 1a, 0.300 mg/kg, 0.170 hr, individual subject): 10.7 µg/mL and 10.4 µg/mL and 14.8 µg/mL
- Plasma Conc (Phase 1a, 0.300 mg/kg, 0.170 hr, mean): 12.0 µg/mL
- Plasma Conc (Phase 1a, 0.300 mg/kg, 0.500 hr, individual subject): 5.00^b μg/mL and 15.1 μg/mL
- Plasma Conc (Phase 1a, 0.300 mg/kg, 0.500 hr, mean): 10.1 µg/mL
- Plasma Conc (Phase 1a, 0.300 mg/kg, 1.00 hr, individual subject): 11.4 μg/mL and BQL (BQL (<10 μg/mL), set = 0 for PK analysis) and 12.9 μg/mL
- Plasma Conc (Phase 1a, 0.300 mg/kg, 1.00 hr, mean): 8.10 µg/mL
- Plasma Conc (Phase 1a, 0.300 mg/kg, 3.00 hr, individual subject): 12.0 μg/mL and BQL (BQL (<10 μg/mL), set = 0 for PK analysis) and 16.5 μg/mL
- Plasma Conc (Phase 1a, 0.300 mg/kg, 3.00 hr, mean): 9.50 µg/mL
- Plasma Conc (Phase 1a, 0.300 mg/kg, 8.00 hr, individual subject): 12.5 μg/mL and BQL (BQL (<10 μg/mL), set = 0 for PK analysis) and 11.2 μg/mL
- Plasma Conc (Phase 1a, 0.300 mg/kg, 8.00 hr, mean): 7.90 µg/mL
- Plasma Conc (Phase 1a, 0.300 mg/kg, 24.0 hr, individual subject): 12.1 μg/mL and BQL (BQL (<10 μg/mL), set = 0 for PK analysis) (2×)
- Plasma Conc (Phase 1a, 0.300 mg/kg, 24.0 hr, mean): 6.05 µg/mL
- Plasma Conc (Phase 1a, 0.300 mg/kg, 48.0 hr, individual subject): BQL (BQL (<10 μg/mL), set = 0 for PK analysis)
- Plasma Conc (Phase 1a, 0.300 mg/kg, 48.0 hr, mean): 0.00 µg/mL
- Plasma Conc (Phase 1a, 0.300 mg/kg, 72.0 hr, individual subject): BQL (BQL (<10 μg/mL), set = 0 for PK analysis) (2×) and 13.5 μg/mL
- Plasma Conc (Phase 1a, 0.300 mg/kg, 72.0 hr, mean): 4.50 µg/mL
- Plasma Conc (Phase 1a, 0.300 mg/kg, 240 hr, individual subject): BQL (BQL (<10 μg/mL), set = 0 for PK analysis)
- Plasma Conc (Phase 1a, 0.300 mg/kg, 240 hr, mean): 0.00 µg/mL
- Mean AUC0-24h (Phase 1a, 0.5 mg/kg): 289 µg·h/mL
- Mean C10 (Phase 1a, 0.5 mg/kg): 17.3 µg/mL
- AUC0-24 hr [5]: 314 µg·h/mL and 340 µg·h/mL and 213 µg·h/mL
- AUCall [5]: 314 µg·h/mL and 1980 µg·h/mL and 213 µg·h/mL
- AUClast [5]: 160 µg·h/mL and 969 µg·h/mL and 101 µg·h/mL
- C10 m [5]: 22.0 µg/mL and 16.2 µg/mL and 13.6 µg/mL
